Target: the molecule itself
Experiment: photobleaching step counting (TIRF microscopy, streaming mode); single GFP-tagged motors moving on immobilised microtubules, ATP reduced to 15 µM, 100 ms exposure for 1200 frames; only one and two step bleaching events seen

B1: His-Kif18A^1-777-GFP (domain or fragment, human, UniProt Q8NI77 1-777, looked up)
chain: MSVTEEDLCHHMKVVVRVRPENTKEKAAGFHKVVHVVDKHILVFDPKQEEVSFFHGKKTTNQNVIKKQNKDLKFVFDAVFDETSTQSEVFEHTTKPILRSFLNGYNCTVLAYGATGAGKTHTMLGSADEPGVMYLTMLHLYKCMDEIKEEKICSTAVSYLEVYNEQIRDLLVNSGPLAVREDTQKGVVVHGLTLHQPKSSEEILHLLDNGNKNRTQHPTDMNATSSRSHAVFQIYLRQQDKTASINQNVRIAKMSLIDLAGSERASTSGAKGTRFVEGTNINRSLLALGNVINALADSKRKNQHIPYRNSKLTRLLKDSLGGNCQTIMIAAVSPSSVFYDDTYNTLKYANRAKDIKSSLKSNVLNVNNHITQYVKICNEQKAEILLLKEKLKAYEEQKAFTNENDQAKLMISNPQEKEIERFQEILNCLFQNREEIRQEYLKLEMLLKENELKSFYQQQCHKQIEMMCSEDKVEKATGKRDHRLAMLKTRRSYLEKRREEELKQFDENTNWLHRVEKEMGLLSQNGHIPKELKKDLHCHHLHLQNKDLKAQIRHMMDLACLQEQQHRQTEAVLNALLPTLRKQYCTLKEAGLSNAAFESDFKEIEHLVERKKVVVWADQTAEQPKQNDLPGISVLMTFPQLGPVQPIPCCSSSGGTNLVKIPTEKRTRRKLMPSPLKGQHTLKSPPSQSVQLNDSLSKELQPIVYTPEDCRKAFQNPSTVTLMKPSSFTTSFQAISSNINSDNCLKMLCEVAIPHNRRKECGQEDLDSTFTICEDIK
notes: not shown: His6, N-terminal, kept; GFP, C-terminal, kept
stoichiometry N: 2

B2: His-Kif18A^FL-GFP (natural protein, human, UniProt Q8NI77 1-898, looked up)
chain: MSVTEEDLCHHMKVVVRVRPENTKEKAAGFHKVVHVVDKHILVFDPKQEEVSFFHGKKTTNQNVIKKQNKDLKFVFDAVFDETSTQSEVFEHTTKPILRSFLNGYNCTVLAYGATGAGKTHTMLGSADEPGVMYLTMLHLYKCMDEIKEEKICSTAVSYLEVYNEQIRDLLVNSGPLAVREDTQKGVVVHGLTLHQPKSSEEILHLLDNGNKNRTQHPTDMNATSSRSHAVFQIYLRQQDKTASINQNVRIAKMSLIDLAGSERASTSGAKGTRFVEGTNINRSLLALGNVINALADSKRKNQHIPYRNSKLTRLLKDSLGGNCQTIMIAAVSPSSVFYDDTYNTLKYANRAKDIKSSLKSNVLNVNNHITQYVKICNEQKAEILLLKEKLKAYEEQKAFTNENDQAKLMISNPQEKEIERFQEILNCLFQNREEIRQEYLKLEMLLKENELKSFYQQQCHKQIEMMCSEDKVEKATGKRDHRLAMLKTRRSYLEKRREEELKQFDENTNWLHRVEKEMGLLSQNGHIPKELKKDLHCHHLHLQNKDLKAQIRHMMDLACLQEQQHRQTEAVLNALLPTLRKQYCTLKEAGLSNAAFESDFKEIEHLVERKKVVVWADQTAEQPKQNDLPGISVLMTFPQLGPVQPIPCCSSSGGTNLVKIPTEKRTRRKLMPSPLKGQHTLKSPPSQSVQLNDSLSKELQPIVYTPEDCRKAFQNPSTVTLMKPSSFTTSFQAISSNINSDNCLKMLCEVAIPHNRRKECGQEDLDSTFTICEDIKSSKCKLPEQESLPNDNKDILQRLDPSSFSTKHSMPVPSMVPSYMAMTTAAKRKRKLTSSTSNSSLTADVNSGFAKRVRQDNSSEKHLQENKPTMEHKRNICKINPSMVRKFGRNISKGNLR
notes: also called full-length Kif18A^FL-GFP; not shown: His6, N-terminal, kept; GFP, C-terminal, kept
stoichiometry N: 2

From PMC3213134, “A Non-Motor Microtubule Binding Site Is Essential for the High Processivity and Mitotic Function of Kinesin-8 Kif18A” (PLoS ONE, 2011)
